Source: publication doi:10.1101/2022.09.29.510120

Tests used:
[1] = target: native RPE1 extracted from Chlamydomonas reinhardtii cell cultures (Chlamydomonas reinhardtii (endogenous in strain D66)); assay: SEC
[2] = target: recombinant ribulose-5-phosphate-3-epimerase isoform 1 from Chlamydomonas reinhardtii (CrRPE1) (Chlamydomonas reinhardtii); assay: SEC
[3] = target: recombinant ribulose-5-phosphate-3-epimerase isoform 1 from Chlamydomonas reinhardtii (CrRPE1) (Chlamydomonas reinhardtii); assay: crystal structure
[4] = target: recombinant ribulose-5-phosphate-3-epimerase isoform 1 from Chlamydomonas reinhardtii (CrRPE1) (Chlamydomonas reinhardtii); assay: SEC-SAXS

## native RPE1 extracted from Chlamydomonas reinhardtii cell cultures (enzyme)
[1]
  stoichiometry N: 6 subunits

## recombinant ribulose-5-phosphate-3-epimerase isoform 1 from Chlamydomonas reinhardtii (CrRPE1) (enzyme)
[2]
  stoichiometry N: 5 subunits
[3]
  stoichiometry N: 6 subunits
[4]
  stoichiometry N (subunits per particle): 6
